Reference: US20040052794, “p53 regulatory protein called RB18A and uses thereof” (published 2004)

What was measured:
p53 wild-type = p53 wild-type (Homo sapiens, UniProt P04637 P04637:1-393); assay: competition; non-specific oligo did not inhibit the complex with n1; conditions: tags: none; plasmid pSP65-p53H8; chain copies: 4
Description: (§1) Part A: four μl of in vitro translated products of wild-type p53 (lanes 2, 5-10) or Luciferase (lanes 3-4) cDNAs were incubated for 20 min at room temperature with 0.2 μg of PAb421 (lane 5) or PAb1801 (lane 6) moAbs or with 1 μg of GST-RB18A-N2 (lanes 4, 7, 8 and 9) or GST-RB18A-Nl1 (lane 10) proteins. Then, a radiolabeled oligonucleotide (0.4 ng per lane) containing the consensus DNA binding site of p53 was added for 20 min at 4° C.
(§2) EMSA was performed as follows. Translated product (4 μl) was pre-incubated for 20 min at room temperature with 1 μg of GST-RB18A fusion protein or 0.2 μg of moAb in a final reaction volume of 14 μl of buffer A (25 mM Tris, pH 7.4, 80 mM KCl, 0.1 mM EDTA, 1 mM DTT and 10% glycerol). Then, 6 μl of buffer B (80 mM KCl, 16.6 mM MgCl₂ and 3 mg/ml BSA) containing 0.4 ng of labeled oligonucleotide and 0.5 μg of poly(dl-dC) were added and incubation was carried out for 20 min at 4° C. Reaction products were run for 15 min at 200 V on a 4% polyacrylamide gel containing 0.4×Tris-Borate-EDTA (90 mM Tris, 64.6 mM Borate, 2.5 mM EDTA, pH 8.3).

GST-RB18A-N2 = biological target: T1, GST-RB18A-N2 (Homo sapiens, UniProt Q15648 SEQ:1234-1566); assay: EMSA; no direct interaction with p53 oligonucleotide; conditions: tags: N-terminal GST; label: 32P; EcoRI-compatible ends
T1 chain: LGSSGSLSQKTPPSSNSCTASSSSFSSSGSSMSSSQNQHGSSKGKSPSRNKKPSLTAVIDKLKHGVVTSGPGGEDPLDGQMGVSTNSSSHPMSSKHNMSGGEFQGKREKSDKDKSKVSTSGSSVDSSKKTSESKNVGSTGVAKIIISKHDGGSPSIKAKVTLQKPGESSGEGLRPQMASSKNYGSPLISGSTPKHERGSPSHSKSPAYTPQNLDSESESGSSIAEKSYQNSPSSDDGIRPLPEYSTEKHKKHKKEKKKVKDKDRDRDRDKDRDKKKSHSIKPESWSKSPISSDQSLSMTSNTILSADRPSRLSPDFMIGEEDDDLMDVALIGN
Description: as §1, §2

p53 wild-type, sequence (P04637 whole entry, one chain of several): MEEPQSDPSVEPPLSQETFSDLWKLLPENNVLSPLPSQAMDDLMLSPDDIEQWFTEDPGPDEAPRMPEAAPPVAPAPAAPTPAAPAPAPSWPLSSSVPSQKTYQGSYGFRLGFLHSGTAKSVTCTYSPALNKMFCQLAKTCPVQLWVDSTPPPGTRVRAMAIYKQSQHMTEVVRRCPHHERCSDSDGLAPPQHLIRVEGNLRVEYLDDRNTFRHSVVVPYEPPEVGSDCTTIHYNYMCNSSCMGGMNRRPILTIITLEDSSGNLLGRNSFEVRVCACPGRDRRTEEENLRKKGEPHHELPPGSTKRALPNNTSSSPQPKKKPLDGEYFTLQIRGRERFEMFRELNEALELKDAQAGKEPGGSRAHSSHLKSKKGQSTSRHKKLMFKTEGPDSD

B1: TL non-specific competitor (dsDNA)
DNA 1: TATGTCTAAGGGACCTGCGGTTGGCATTGATCTTG
DNA 2: CAAGATCAATGCCAACCGCAGGTCCCTTAGACATA
binding result (p53 wild-type): no binding

B2: PG p53 consensus oligonucleotide (dsDNA)
DNA 1: AATTCAGACATGCCTAGACATGCCTG
DNA 2: CAGGCATGTCTAGGCATGTCTGAATT
binding result (GST-RB18A-N2): no binding
